Assay results taken from PMC11592666.

Experiments:
[1] = biological target: His-Dwg wild type; assay: GST pull-down; conditions: parent: est. 41; read off a plot
[2] = biological target: GST-Atg8a wild type (UniProt Q9W2S2); assay: GST pull-down; conditions: parent: est. 27; read off a plot
UniProt Q9W2S2, sequence (Q9W2S2 entry or part of it): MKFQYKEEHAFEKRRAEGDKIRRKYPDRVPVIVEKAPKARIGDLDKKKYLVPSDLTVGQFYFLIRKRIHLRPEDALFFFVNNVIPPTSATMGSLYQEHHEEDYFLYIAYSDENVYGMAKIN

| Substance | other: Fold Change [1] | other: Fold Change [2] |
| --- | --- | --- |
| GST-Atg8a wild type (from UniProt Q9W2S2) Y49A | 4.4 |  |
| His-Dwg wild type Y129A; I132A |  | 9.5 |
